Laboratory results reported in paper PMC4190031 (Cell, 2014).
Square brackets hold non-standard residues; d marks the D form. Ends that are not written are not given here.

Target: T1, MitTx β subunit (Texas coral snake, UniProt G9I930 31-149)
T1 sequence: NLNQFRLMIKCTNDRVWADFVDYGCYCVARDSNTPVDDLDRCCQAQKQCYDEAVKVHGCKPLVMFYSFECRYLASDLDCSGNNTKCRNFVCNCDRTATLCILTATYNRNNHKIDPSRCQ
Assay: crystal structure

B1: MitTx α subunit (natural protein)
chain: [PCA]IRPAFCYEDPPFFQKCGAFVDSYYFNRSRITCVHFFYGQCDVNQNHFTTMSECNRVCHG
modifications: cysteine pairing not given here
binding result: binds
